Read-outs that look alike come from different tables or passages of the source.
B1: heregulin HRG1-β (ligand, UniProt Q02297-6 177-241, looked up)
chain: SHLVKCAEKEKTFCVNGGECFMVKDLSNPSRYLCKCPNEFTGDRCQNYVMASFYKHLGIEFMEAE
B2: Epigen (ligand, UniProt Q6UW88 23-104, looked up)
chain: AAVTVTPPITAQQGNWTVNKTEADNIEGPIALKFSHLCLEDHNSYCINGACAFHHELEKAICRCFTGYTGERCEHLTLTSYA
B3: amphiregulin (ligand, UniProt P15514 101-198, looked up)
chain: SVRVEQVVKPPQNKTESENTSDKPKRKKKGGKNGKNRRNRKKKNPCNAEFQNFCIHGECKYIEHLEAVTCKCQQEYFGERCGEKSMKTHSMIDSSLSK

Experiments:
Assay in all cases: cell-based or functional assay
[1] = target: ErbB1 on NCI-ADRr cells (UniProt P00533)
[2] = target: ErbB3 on tumour cells (NCI-ADRr, OVCAR8, OVCAR8-HER2) (UniProt P21860)
[3] = target: ErbB1 on NCI-ADRr cells (UniProt P00533); remark: listed apart in the source

| Molecule | pErbB1 EC50 [nM], NCI-ADRr [1] | pErbB1 % stimulation at 5 min relative to maximum [3] | further results |
| --- | --- | --- | --- |
| heparin-binding epidermal growth factor (from UniProt Q99075 63-148) (ligand) | 21 nM | – | pErbB1 % stimulation at 5 min relative to maximum [1]: 87% |
| transforming growth factor alpha (from UniProt P01135 40-89) (ligand) | 30 nM | – | – |
| betacellulin (from UniProt P35070 32-111) (ligand) | 5.7 nM | – | – |
| B1 | – | – | pErbB3 % stimulation at 5 min relative to maximum [2]: 100%; pErbB3 EC50 [nM], NCI-ADRr [2]: 9.9 nM |
| B2 | – | 12% | – |
| B3 | – | 95% | pErbB1 EC50 [nM], NCI-ADRr [3]: 37 nM |

From patent publication US20110159513A1
